In paper PMC6601565:

Assays:
[1] = biological target: human CD16A-158F ECD fused to Avi-tagged and biotinylated monomeric Fc (silenced) (human) (UniProt P08637); assay: SPR
[2] = biological target: human CD16A-158V ECD fused to Avi-tagged and biotinylated monomeric Fc (silenced) (human); assay: SPR

UniProt P08637, sequence (P08637 17-208): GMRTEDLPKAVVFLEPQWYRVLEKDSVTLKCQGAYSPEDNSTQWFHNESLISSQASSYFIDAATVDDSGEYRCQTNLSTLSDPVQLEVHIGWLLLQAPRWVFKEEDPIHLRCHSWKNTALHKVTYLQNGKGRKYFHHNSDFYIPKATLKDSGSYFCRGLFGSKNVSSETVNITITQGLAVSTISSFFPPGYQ

Substance	Kd [1]	koff [1]	kon [1]	Kd [2]	koff [2]	kon [2]
human IgG1 with wildtype Fc (antibody)	2720 nM	0.0675 s⁻¹	24800 M⁻¹ s⁻¹	424 nM	0.00995 s⁻¹	23500 M⁻¹ s⁻¹
human IgG1 with silenced Fc (L234F/L235E/D265A) (antibody)	34700 nM	0.71 s⁻¹	20400 M⁻¹ s⁻¹			
human IgG1 with enhanced Fc (S239D/I332E) (antibody)				13.5 nM	0.00639 s⁻¹	474000 M⁻¹ s⁻¹
